Reference: IntAct's records for PubMed 31515488

B1: Zinc finger and BTB domain-containing protein 49 (Homo sapiens), Q6ZSB9 (parent)
chain: MDPVATHSCHLLQQLHEQRIQGLLCDCMLVVKGVCFKAHKNVLAAFSQYFRSLFQNSSSQKNDVFHLDVKNVSGIGQILDFMYTSHLDLNQDNIQVMLDTAQCLQVQNVLSLCHTFLKSATVVQPPGMPCNSTLSLQSTLTPDATCVISENYPPHLLQECSADAQQNKTLDESHPHASPSVNRHHSAGEISKQAPDTSDGSCTELPFKQPNYYYKLRNFYSKQYHKHAAGPSQERVVEQPFAFSTSTDLTTVESQPCAVSHSECILESPEHLPSNFLAQPVNDSAPHPESDATCQQPVKQMRLKKAIHLKKLNFLKSQKYAEQVSEPKSDDGLTKRLESASKNTLEKASSQSAEEKESEEVVSCENFNCISETERPEDPAALEDQSQTLQSQRQYACELCGKPFKHPSNLELHKRSHTGEKPFECNICGKHFSQAGNLQTHLRRHSGEKPYICEICGKRFAASGDVQRHIIIHSGEKPHLCDICGRGFSNFSNLKEHKKTHTADKVFTCDECGKSFNMQRKLVKHRIRHTGERPYSCSACGKCFGGSGDLRRHVRTHTGEKPYTCEICNKCFTRSAVLRRHKKMHCKAGDESPDVLEELSQAIETSDLEKSQSSDSFSQDTSVTLMPVSVKLPVHPVENSVAEFDSHSGGSYCKLRSMIQPHGVSDQEKLSLDPGKLAKPQMQQTQPQAYAYSDVDTPAGGEPLQADGMAMIRSSLAALDNHGGDPLGSRASSTTYRNSEGQFFSSMTLWGLAMKTLQNENELDQ
B2: Tripartite motif-containing protein 10 (Homo sapiens), Q9UDY6 (parent)
chain: MASAASVTSLADEVNCPICQGTLREPVTIDCGHNFCRACLTRYCEIPGPDLEESPTCPLCKEPFRPGSFRPNWQLANVVENIERLQLVSTLGLGEEDVCQEHGEKIYFFCEDDEMQLCVVCREAGEHATHTMRFLEDAAAPYREQIHKCLKCLRKEREEIQEIQSRENKRMQVLLTQVSTKRQQVISEFAHLRKFLEEQQSILLAQLESQDGDILRQRDEFDLLVAGEICRFSALIEELEEKNERPARELLTDIRSTLIRCETRKCRKPVAVSPELGQRIRDFPQQALPLQREMKMFLEKLCFELDYEPAHISLDPQTSHPKLLLSEDHQRAQFSYKWQNSPDNPQRFDRATCVLAHTGITGGRHTWVVSIDLAHGGSCTVGVVSEDVQRKGELRLRPEEGVWAVRLAWGFVSALGSFPTRLTLKEQPRQVRVSLDYEVGWVTFTNAVTREPIYTFTASFTRKVIPFFGLWGRGSSFSLSS
B3: Hypoxia-inducible factor 1-alpha inhibitor (Homo sapiens), Q9NWT6 (parent)
chain: MAATAAEAVASGSGEPREEAGALGPAWDESQLRSYSFPTRPIPRLSQSDPRAEELIENEEPVVLTDTNLVYPALKWDLEYLQENIGNGDFSVYSASTHKFLYYDEKKMANFQNFKPRSNREEMKFHEFVEKLQDIQQRGGEERLYLQQTLNDTVGRKIVMDFLGFNWNWINKQQGKRGWGQLTSNLLLIGMEGNVTPAHYDEQQNFFAQIKGYKRCILFPPDQFECLYPYPVHHPCDRQSQVDFDNPDYERFPNFQNVVGYETVVGPGDVLYIPMYWWHHIESLLNGGITITVNFWYKGAPTPKRIEYPLKAHQKVAIMRNIEKMLGEALGNPQEVGPLLNTMIKGRYN
B4: 6-pyruvoyl tetrahydrobiopterin synthase (Homo sapiens), Q03393 (parent)
chain: MSTEGGGRRCQAQVSRRISFSASHRLYSKFLSDEENLKLFGKCNNPNGHGHNYKVVVTVHGEIDPATGMVMNLADLKKYMEEAIMQPLDHKNLDMDVPYFADVVSTTENVAVYIWDNLQKVLPVGVLYKVKVYETDNNIVVYKGE
B5: Transmembrane protein 51 (Homo sapiens), Q9NW97 (parent)
chain: MMAQSKANGSHYALTAIGLGMLVLGVIMAMWNLVPGFSAAEKPTAQGSNKTEVGGGILKSKTFSVAYVLVGAGVMLLLLSICLSIRDKRKQRQGEDLAHVQHPTGAGPHAQEEDSQEEEEEDEEAASRYYVPSYEEVMNTNYSEARGEEQNPRLSISLPSYESLTGLDETTPTSTRADVEASPGNPPDRQNSKLAKRLKPLKVRRIKSEKLHLKDFRINLPDKNVPPPSIEPLTPPPQYDEVQEKAPDTRPPD
partner: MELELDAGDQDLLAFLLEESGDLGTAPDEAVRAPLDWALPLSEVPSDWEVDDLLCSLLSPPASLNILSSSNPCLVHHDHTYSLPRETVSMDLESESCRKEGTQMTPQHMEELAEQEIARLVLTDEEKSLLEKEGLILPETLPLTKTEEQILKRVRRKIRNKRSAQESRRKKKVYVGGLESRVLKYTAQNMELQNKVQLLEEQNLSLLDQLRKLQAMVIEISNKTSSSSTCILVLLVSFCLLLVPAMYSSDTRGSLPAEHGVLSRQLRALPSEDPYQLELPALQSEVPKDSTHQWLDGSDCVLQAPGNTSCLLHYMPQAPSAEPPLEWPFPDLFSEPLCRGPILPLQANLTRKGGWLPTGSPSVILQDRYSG
B6: LHFPL tetraspan subfamily member 5 protein (Homo sapiens), Q8TAF8 (parent)
chain: MVKLLPAQEAAKIYHTNYVRNSRAVGVMWGTLTICFSVLVMALFIQPYWIGDSVNTPQAGYFGLFSYCVGNVLSSELICKGGPLDFSSIPSRAFKTAMFFVALGMFLIIGSIICFSLFFICNTATVYKICAWMQLAAATGLMIGCLVYPDGWDSSEVRRMCGEQTGKYTLGHCTIRWAFMLAILSIGDALILSFLAFVLGYRQDKLLPDDYKADGTEEV
partner: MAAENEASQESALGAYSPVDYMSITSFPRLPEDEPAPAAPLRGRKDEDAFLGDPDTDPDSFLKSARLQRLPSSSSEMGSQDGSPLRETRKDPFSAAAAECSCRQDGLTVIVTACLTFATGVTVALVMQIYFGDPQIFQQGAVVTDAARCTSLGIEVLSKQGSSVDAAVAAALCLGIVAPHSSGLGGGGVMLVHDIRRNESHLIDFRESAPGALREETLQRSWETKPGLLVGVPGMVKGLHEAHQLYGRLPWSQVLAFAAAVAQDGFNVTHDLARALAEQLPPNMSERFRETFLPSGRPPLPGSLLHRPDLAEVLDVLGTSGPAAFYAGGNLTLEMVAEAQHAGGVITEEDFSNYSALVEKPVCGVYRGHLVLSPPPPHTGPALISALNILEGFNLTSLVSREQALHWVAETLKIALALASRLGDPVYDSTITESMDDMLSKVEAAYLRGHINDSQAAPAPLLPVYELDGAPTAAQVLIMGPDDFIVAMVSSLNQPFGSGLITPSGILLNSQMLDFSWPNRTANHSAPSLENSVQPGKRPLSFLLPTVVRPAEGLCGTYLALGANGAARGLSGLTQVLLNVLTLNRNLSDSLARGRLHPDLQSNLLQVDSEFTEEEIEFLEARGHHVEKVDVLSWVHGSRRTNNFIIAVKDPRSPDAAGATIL
B7: Melanoma-associated antigen 8 (Homo sapiens), P43361 (parent)
chain: MLLGQKSQRYKAEEGLQAQGEAPGLMDVQIPTAEEQKAASSSSTLIMGTLEEVTDSGSPSPPQSPEGASSSLTVTDSTLWSQSDEGSSSNEEEGPSTSPDPAHLESLFREALDEKVAELVRFLLRKYQIKEPVTKAEMLESVIKNYKNHFPDIFSKASECMQVIFGIDVKEVDPAGHSYILVTCLGLSYDGLLGDDQSTPKTGLLIIVLGMILMEGSRAPEEAIWEALSVMGLYDGREHSVYWKLRKLLTQEWVQENYLEYRQAPGSDPVRYEFLWGPRALAETSYVKVLEHVVRVNARVRISYPSLHEEALGEEKGV

Variants of: B1
Conditions: with gopc_human GOPC

effect of a mutation on the interaction | Variant
with no effect | P627A
with no effect | G701D

Variants of: B1
Conditions: with cep70_human CEP70, Q8NHQ1
Chain of cep70_human CEP70, Q8NHQ1 (Q8NHQ1 whole entry): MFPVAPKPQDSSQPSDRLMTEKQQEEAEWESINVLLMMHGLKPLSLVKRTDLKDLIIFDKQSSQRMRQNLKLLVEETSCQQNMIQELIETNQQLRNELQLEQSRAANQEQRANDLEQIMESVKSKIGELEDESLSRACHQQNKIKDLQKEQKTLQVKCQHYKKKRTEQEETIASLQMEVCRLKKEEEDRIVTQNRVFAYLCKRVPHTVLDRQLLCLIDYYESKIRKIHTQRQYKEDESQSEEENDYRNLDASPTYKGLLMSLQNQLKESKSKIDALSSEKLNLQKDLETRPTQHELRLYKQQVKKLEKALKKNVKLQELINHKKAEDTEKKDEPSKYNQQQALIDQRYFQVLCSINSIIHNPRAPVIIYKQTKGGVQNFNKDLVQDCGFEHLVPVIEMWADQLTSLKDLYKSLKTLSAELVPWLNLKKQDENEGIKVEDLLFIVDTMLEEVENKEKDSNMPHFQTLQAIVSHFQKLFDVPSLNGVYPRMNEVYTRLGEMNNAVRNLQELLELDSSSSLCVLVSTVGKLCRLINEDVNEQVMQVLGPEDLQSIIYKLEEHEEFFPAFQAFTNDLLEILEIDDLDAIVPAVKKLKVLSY

effect of a mutation on the interaction | Variant
with no effect | P627A
with no effect | G701D

Variants of: B2
Conditions: with psa1_human PSMA1, P25786
Chain of psa1_human PSMA1, P25786 (P25786 whole entry): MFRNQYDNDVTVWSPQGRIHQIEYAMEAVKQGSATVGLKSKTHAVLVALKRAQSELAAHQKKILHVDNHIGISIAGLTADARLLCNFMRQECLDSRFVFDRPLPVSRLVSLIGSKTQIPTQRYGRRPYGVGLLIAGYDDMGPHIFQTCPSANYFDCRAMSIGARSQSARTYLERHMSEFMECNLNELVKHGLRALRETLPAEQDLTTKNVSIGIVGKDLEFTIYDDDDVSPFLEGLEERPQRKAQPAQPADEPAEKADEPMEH

effect of a mutation on the interaction | Variant
with no effect | R65H

Variants of: B3
Conditions: with asb9_human ASB9, Q96DX5
Chain of asb9_human ASB9, Q96DX5 (Q96DX5 whole entry): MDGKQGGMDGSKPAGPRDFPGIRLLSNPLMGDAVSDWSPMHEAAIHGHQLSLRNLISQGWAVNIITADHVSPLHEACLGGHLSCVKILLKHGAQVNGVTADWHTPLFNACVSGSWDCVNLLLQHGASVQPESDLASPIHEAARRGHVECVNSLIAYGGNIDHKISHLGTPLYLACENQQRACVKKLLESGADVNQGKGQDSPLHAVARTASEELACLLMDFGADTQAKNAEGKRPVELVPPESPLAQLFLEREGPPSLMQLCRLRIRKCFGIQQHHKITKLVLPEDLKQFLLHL

effect of a mutation on the interaction | Variant
with no effect | P41A

Variants of: B4
Conditions: with c1qc_human C1QC

effect of a mutation on the interaction | Variant
disrupting interaction strength | R25Q
disrupting interaction strength | T106M
disrupting interaction strength | R9C

Variants of: B4
Conditions: with ntaq1_human NTAQ1, Q96HA8

effect of a mutation on the interaction | Variant
disrupting interaction strength | R25Q
disrupting interaction strength | T67M
disrupting interaction strength | P123S
disrupting interaction strength | T106M
disrupting interaction strength | R9C

Variants of: B4
Conditions: with fxr2_human FXR2, P51116

effect of a mutation on the interaction | Variant
disrupting interaction strength | R25Q
disrupting interaction strength | T106M
disrupting interaction strength | R9C

Variants of: B4
Conditions: with sdcb1_human SDCBP

effect of a mutation on the interaction | Variant
disrupting interaction strength | T106M

Variants of: B5
Conditions: with creb3_human CREB3, O43889

effect of a mutation on the interaction | Variant
with no effect | P159S
with no effect | P237L
with no effect | R146W
with no effect | D188G

Variants of: B6
Conditions: with ggt7_human GGT7, Q9UJ14

effect of a mutation on the interaction | Variant
with no effect | K205N

Variants of: B7
Conditions: with bex5_human BEX5, Q5H9J7
Chain of bex5_human BEX5, Q5H9J7 (Q5H9J7 whole entry): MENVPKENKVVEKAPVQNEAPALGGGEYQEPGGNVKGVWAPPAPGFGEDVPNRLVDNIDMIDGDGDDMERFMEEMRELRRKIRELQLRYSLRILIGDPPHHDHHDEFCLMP

effect of a mutation on the interaction | Variant
with no effect | R121H
